Results: doi:10.1101/2025.10.27.684738

How the values were obtained:
ANXA11 Ct = molecular target: T1, ANXA11 Ct (UniProt P50995 201-505); test: MST
T1 sequence: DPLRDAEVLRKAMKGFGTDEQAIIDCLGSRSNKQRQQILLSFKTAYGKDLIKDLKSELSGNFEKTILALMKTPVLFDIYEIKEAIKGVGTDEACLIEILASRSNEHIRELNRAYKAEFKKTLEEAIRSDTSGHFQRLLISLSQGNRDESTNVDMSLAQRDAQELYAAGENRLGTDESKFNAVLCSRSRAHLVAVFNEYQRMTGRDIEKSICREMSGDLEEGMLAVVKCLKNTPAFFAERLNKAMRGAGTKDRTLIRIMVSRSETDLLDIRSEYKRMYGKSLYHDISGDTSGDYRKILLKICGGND

ANXA11 Nt = ANXA11 Nt (UniProt P50995 1-191); test: MST
ANXA11 Nt, sequence (P50995 1-191): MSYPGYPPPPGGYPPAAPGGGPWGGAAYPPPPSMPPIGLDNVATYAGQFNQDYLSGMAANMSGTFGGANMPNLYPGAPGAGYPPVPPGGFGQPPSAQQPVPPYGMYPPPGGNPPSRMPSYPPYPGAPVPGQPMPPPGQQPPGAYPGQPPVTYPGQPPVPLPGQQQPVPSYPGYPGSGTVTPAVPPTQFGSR

Binder: UUUUUUUUUU (ssRNA) [poly-U 10-mer RNA]
- Kd (ANXA11 Ct): 3.55 ± 0.3 µM
- Kd (ANXA11 Nt): 4.18 ± 0.8 µM
